Measured values reported in US20240116985A1 (published 2024).
Starred links: 1 amine or outer side, 2 acyl side, 3 side chain; linkers in the order of their positions; H or OH if unused. Positions of bridges follow the written chain, without caps; N, C: chain ends. Non-standard residues stand in square brackets, D forms with d. Primed or numbered codes have the meaning given here. B5(16) = 2-amino-2-(pent-4-en-1-yl)hept-6-enoic acid = 2,2-bis(4-pentenyl)glycine (stitching residue), C=CCCCC(CCCC=C)(N[*:1])C(=O)[*:2]; B5(9) = 2-amino-2-(pent-4-en-1-yl)hept-6-enoic acid (2,2-bis(4-pentenyl)glycine), C=CCCCC(CCCC=C)(N[*:1])C(=O)[*:2]; Bta = N[C@@H](Cc1csc2ccccc12)C(=O)O; αAllylPro = C=CC[C@@]1(C(=O)O)CCCN1; S8 = C=CCCCCCC[C@](C)(N)C(=O)O

T1: full-length beta-Catenin (Uniprot ID P35222) (Homo sapiens (Human), UniProt P35222 1-781)
T1 construct: also called bCat; B-Catenin
T1 sequence: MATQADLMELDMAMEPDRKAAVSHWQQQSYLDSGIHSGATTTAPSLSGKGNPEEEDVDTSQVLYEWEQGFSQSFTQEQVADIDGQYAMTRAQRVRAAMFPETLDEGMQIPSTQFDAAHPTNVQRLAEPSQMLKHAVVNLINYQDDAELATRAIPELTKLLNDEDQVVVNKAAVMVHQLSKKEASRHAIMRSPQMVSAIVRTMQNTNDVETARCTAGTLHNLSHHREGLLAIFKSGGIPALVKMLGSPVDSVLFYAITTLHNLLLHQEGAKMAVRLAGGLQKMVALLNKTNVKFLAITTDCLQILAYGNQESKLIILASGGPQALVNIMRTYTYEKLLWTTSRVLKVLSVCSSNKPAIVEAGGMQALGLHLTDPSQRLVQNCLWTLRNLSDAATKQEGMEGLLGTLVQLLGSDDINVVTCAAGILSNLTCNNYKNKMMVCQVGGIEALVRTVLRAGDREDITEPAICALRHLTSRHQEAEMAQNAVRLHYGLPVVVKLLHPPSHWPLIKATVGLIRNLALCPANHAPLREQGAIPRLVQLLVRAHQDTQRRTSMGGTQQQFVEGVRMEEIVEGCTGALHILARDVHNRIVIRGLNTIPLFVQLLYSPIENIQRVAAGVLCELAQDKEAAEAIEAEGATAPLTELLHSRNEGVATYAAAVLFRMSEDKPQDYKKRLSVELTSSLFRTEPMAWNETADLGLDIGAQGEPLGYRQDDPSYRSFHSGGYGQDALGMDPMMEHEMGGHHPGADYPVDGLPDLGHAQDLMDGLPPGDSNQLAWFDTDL

T2: full-length beta-Catenin (Uniprot ID P35222) (Homo sapiens (Human), UniProt P35222 2-781)
T2 construct: Tags of the recombinant protein are not described for the FP assay; also called bCat; B-Catenin
T2 sequence: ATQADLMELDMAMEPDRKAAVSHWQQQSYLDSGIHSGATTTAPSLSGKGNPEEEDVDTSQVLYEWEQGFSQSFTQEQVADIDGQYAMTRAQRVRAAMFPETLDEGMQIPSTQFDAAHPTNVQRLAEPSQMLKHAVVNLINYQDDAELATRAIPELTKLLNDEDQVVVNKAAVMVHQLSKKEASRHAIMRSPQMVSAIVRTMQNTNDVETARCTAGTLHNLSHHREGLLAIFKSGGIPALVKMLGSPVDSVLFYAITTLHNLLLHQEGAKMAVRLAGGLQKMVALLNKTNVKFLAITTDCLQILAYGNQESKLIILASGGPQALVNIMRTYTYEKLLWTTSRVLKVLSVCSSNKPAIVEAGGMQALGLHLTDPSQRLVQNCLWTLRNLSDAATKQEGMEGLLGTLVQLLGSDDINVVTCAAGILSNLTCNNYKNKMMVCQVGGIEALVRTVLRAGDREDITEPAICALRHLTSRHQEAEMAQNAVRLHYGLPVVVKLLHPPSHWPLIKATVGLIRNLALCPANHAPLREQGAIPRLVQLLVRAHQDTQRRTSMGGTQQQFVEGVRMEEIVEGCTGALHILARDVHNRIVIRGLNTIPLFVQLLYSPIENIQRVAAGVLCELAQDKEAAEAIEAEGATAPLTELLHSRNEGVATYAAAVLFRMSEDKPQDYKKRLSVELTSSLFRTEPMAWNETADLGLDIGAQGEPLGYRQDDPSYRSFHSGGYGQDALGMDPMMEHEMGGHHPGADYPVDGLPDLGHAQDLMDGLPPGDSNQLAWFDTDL


Assays:
[1] = biological target: T1, full-length beta-Catenin (Uniprot ID …); assay: fluorescence polarization competition; full-length beta-catenin, competitor 5FAM-TCF4(10-53) probe
Procedure: (§1) The plate was incubated protected from light for 60 minutes at 20° C. prior to read. Reads were performed on a CLARIOstar plate reader (BMG Labtech) in duplicate, and data were fitted to a 1:1 binding model with hill slope using an in-house script. All provided concentrations are final concentrations.

[2] = biological target: T2, full-length beta-Catenin (Uniprot ID …); assay: fluorescence polarization competition; full-length beta-catenin, competitor 5FAM-TCF4 10-53
Procedure: as §1

Binder	IC50 [1]	IC50 [2]
Ac-[αAllylPro]DI[B5(16)]DEAAFQ[S8]F[Bta]Y-NH2 (staple 1-4, 4-11, Stapled peptide composition; also called Ac-PL3-Asp-Ile-B5-Asp-Glu-Ala-Ala-Phe-Gln-S8-Phe-BztA-Tyr-NH2) [I-636]	–	198 nM
Ac-[αAllylPro]DI[B5(9)]DEAAFQ[S8]F[Bta]W-NH2 (staple 1-4, 4-11, Stapled peptide composition; also called Ac-PL3-Asp-Ile-B5-Asp-Glu-Ala-Ala-Phe-Gln-S8-Phe-BztA-Trp-NH2) [I-643]	–	958 nM
XDIXDEAAFQXFXT (not fully specified; As printed: Ac-PL3-Asp-Ile-B5-Asp-Glu-Ala-Ala-Phe-Gln-S8-Phe-BztA-Thr-NH2; N-terminal Ac, C-terminal NH2; PL3 (1), B5 (4), S8 (11), BztA (13); staples PL3-B5 and B5-S8 by olefin metathesis, Stapled peptide composition; also called Ac-PL3-Asp-Ile-B5-Asp-Glu-Ala-Ala-Phe-Gln-S8-Phe-BztA-Thr-NH2) [I-641]	–	122 nM
XDIXDEAAFQXFXS (not fully specified; As printed: Ac-PL3-Asp-Ile-B5-Asp-Glu-Ala-Ala-Phe-Gln-S8-Phe-BztA-Ser-NH2; N-terminal Ac, C-terminal NH2; PL3 (1), B5 (4), S8 (11), BztA (13); staples PL3-B5 and B5-S8 by olefin metathesis, Stapled peptide composition; also called Ac-PL3-Asp-Ile-B5-Asp-Glu-Ala-Ala-Phe-Gln-S8-Phe-BztA-Ser-NH2) [I-640]	–	87 nM
XDIXDEAAFQXFXT (not fully specified; As printed: Ac-PL3-Asp-Ile-B5-Asp-Glu-Ala-Ala-Phe-Gln-S8-Phe-BztA-Thr-NH2; N-terminal Ac, C-terminal NH2; PL3 (1), B5 (4), S8 (11), BztA (13); staples PL3-B5 and B5-S8 by olefin metathesis, Stapled peptide composition; also called Ac-PL3-Asp-Ile-B5-Asp-Glu-Ala-Ala-Phe-Gln-S8-Phe-BztA-Thr-NH2) [I-642]	–	118 nM

Continued, values first:

IC50 [1]	IC50 [2]	Binder
4260 nM	–	XDLXDEAAFNXFXQI (not fully specified; N-terminal Ac; C-terminal NH2; PL3 at 1, B5 at 4, S8 at 11, BztA at 13; stapled PL3-B5 and B5-S8 by olefin metathesis, Stapled peptide; also called Ac-PL3-Asp-Leu-B5-Asp-Glu-Ala-Ala-Phe-Asn-S8-Phe-BztA-Gln-Ile-NH2) [I-733]
246 nM	–	XDLXDEAAFNXFXQI (not fully specified; N-terminal Ac; C-terminal NH2; PL3 at 1, B5 at 4, S8 at 11, BztA at 13, dIle (D-Ile) at 15; stapled PL3-B5 and B5-S8 by olefin metathesis, Stapled peptide; also called Ac-PL3-Asp-Leu-B5-Asp-Glu-Ala-Ala-Phe-Asn-S8-Phe-BztA-Gln-dIle-NH2) [I-735]
–	461 nM	Ac-[αAllylPro]DI[B5(9)]DEAAFQ[S8]F[Bta]V-NH2 (staple 1-4, 4-11, Stapled peptide composition; also called Ac-PL3-Asp-Ile-B5-Asp-Glu-Ala-Ala-Phe-Gln-S8-Phe-BztA-Val-NH2) [I-646]
–	395 nM	Ac-[αAllylPro]DI[B5(9)]DEAAFQ[S8]F[Bta]V-NH2 (staple 1-4, 4-11, Stapled peptide composition; also called Ac-PL3-Asp-Ile-B5-Asp-Glu-Ala-Ala-Phe-Gln-S8-Phe-BztA-Val-NH2) [I-645]
–	808 nM	Ac-[αAllylPro]DI[B5(9)]DEAAFQ[S8]F[Bta]W-NH2 (staple 1-4, 4-11, Stapled peptide composition; also called Ac-PL3-Asp-Ile-B5-Asp-Glu-Ala-Ala-Phe-Gln-S8-Phe-BztA-Trp-NH2) [I-644]
